Assay results reported in the nanobody polyreactivity screen of Harvey et al. (2022).

Test: yeast display, Sf9 membrane polyspecificity reagent, FACS + sequencing; frameworks hold sequencing errors
How it was run: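 A synthetic nanobody library was expressed on Saccharomyces cerevisiae BJ5465 by galactose induction for 36–48 hours. The library was stained for 1 hour at 4 °C with 10% biotinylated, detergent-solubilized Sf9 membrane reagent and enriched with streptavidin microbeads before FACS. Low and high (top ~1%) gates were set on anti-HA fluorescence for expression and streptavidin fluorescence for reagent binding, and each polyreactivity label reflects the gate of origin.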

| Sequence | polyreactivity (PSR sort gate) |
| --- | --- |
| QVQLVESGGGLVQAGGSLRLSCDASGSTFYWYAMGWYRQAPGKERELVAAITYSSGRTYYADSVKGRFTISRDNAKNTVYLQMNSLKPEDTAVYYCGWSALNGYDYWGQGTQVTVSS | high polyreactivity |
| QVQLVESGGGLVQAGGSLRLSCAASGSIFYTYAMGWYRQAPGKERELVAAINWSGGRTYYADSVKGRFTISRDNAKNTVYLQMNSLTPEDTAVYSCAARRGRSWGGFDYWGQGTQVTVSS | low polyreactivity |
| QVQLQESGGVLVQEGGSLRLSCAASGNISPQADMGWYRQATGTERELVASIGTGGTTNYADSVKGRFTISRDNAKNTVYLQMNRLKPDDTAVYYCAAVRYEYNPYDYWGQGTQVTVSS | low polyreactivity |
| QVQLVESGGGLVQAGGSLRLSCAASGFTFAGYAMGWYRQAPGKERELVAGIRSSGARTNYADSVKGRFTISRDNAKNTVYLQMNSLKPEDTAVYYCNAVRTLYIWWPGYYYWGQGTQVTVSS | low polyreactivity |
| QVQLVESGGGLVQAGGSLRLSCAASGSTFRYNAMGWYRQAPGKERELVASISGSGGGTYYADSVKGRFTISRDNAKNTVYLQMNSLKPEDTAVYYCAADAGAFYFGGDYWGQGTQVTVSS | low polyreactivity |
| QGQLVESGGGLVQAGGSLRLSCAASGRIFQMYTMGWYRQAPGKERELDAAITSGTSTSYADSVKGRFTISRDNAKNPFYLQMNSLKPEDTAVYYCNKGSVCYSSVFVPYESDYWGQGTQVTVSS | low polyreactivity |
| QVQLVESGGGLVQAGGSLRISCAASGFIFGWYAMGWYRQAPGKERELVAVIRSGGRTNYADSVKGRFTISRDNAKNTVYLQMNSLKPEDTAVYYCNAVGGRGYGGGYWGQGTQVTVSS | high polyreactivity |
| QVQLVESGGGLVQAGGSLRLSCAASGSTFYTYAMGWYRQAPGKERELVAAISWSGGSTYYADSVKGRFTISRDIAKNTVYLQMNSLKPEDTAVYYCAKKQVTTDVSSETFVLEMDYWGQGTQVTVSS | low polyreactivity |
| QVQLVESGGGLVQAGGSLRLSCAASGRTFRGYAMGWYRQAPGKERELVAGITQRGGTTYYADSVKGRFTISRDNAKNTVYLQMNSLKPEDSAVYYCAAAFGRVTKYGYRNQYGYWGHGTQVTVSS | high polyreactivity |
| QVQLVESGGGLVQAGGSLRLSCAASGRTFFRYAMGWYRQAPGKERELVAAISRSGGGTYYADSVKGRFTISRDNAKNTVYLQMNSLKPEDTAVYYCNRDDYSRNHVYEFDYWGQGTQVTVSS | low polyreactivity |
| QVQLVESGGGLVQAGGSLRLSCAASGIIFVYYVMGWYRQAPGKERELVAAISWDGGSTYYADSVKGRFTISRDNAKNTVYLQMNSLKPEDTAVYYCAARYKGNPDRYGYWGLGTQVTVSS | high polyreactivity |
| QVQLVESGGGLVQAGGSLRLSCAASGRTFKRNAMGWYRQAPGKERELVAGISTGGSTNYADSVKGRFTISRDNAKNTVYLQMNSLKPEDTAVYYCAARYRTDWTPGYHVGYYYWGQGTQVTVSS | high polyreactivity |
| QVQLVESGGGLVQAGGSLRLSCAASGRIFSGYAMGWYRQAPGKERELVAAISQRGGSTTYADSVKGRFTISRDNAKNTVYLQMNSLKPEDTAVYYCAKRYTYPSGYDYWGQGTQVTVSS | low polyreactivity |
| QVQLVESGGGLVQAGGSLRLSCAASGRTLVLYAMGWYRQAPGKERELVAAITWSGDSTYYADSVKGRFTISRDNAKNTVYLQMNSLKPEDTAVYYCAADKSYRRVYYWGQGTQVTVSS | low polyreactivity |
| QVQLVESGGGLVQAGGSLRLSCAASGRTFIWYAMGWYRQAPGKEREFVAAIRSSGGRTYYADSVKGRFTISRDNAKNTVYLQMNSLKPEDTAVYYCAKEAYYGWYWYGYWGQGTQVTVSS | high polyreactivity |
| QVQLVESGGGLVQAGGSLRLSCAASGSTFLPNDMGWYRQAPGKERELVAAISWSDGSTYYADSVKGRFTISRDNAKNTVYLQMNSLKPEDTAVYYCNTVGFDYYYYEYDYWGQGTQVTVSS | low polyreactivity |
| QVQLVESGGGLVQAGGSLRLSCAASGRIIPYYAMGWYRQAPGKERELVASTNYADSVKGRFTISRDNAKNTVYLQMNSLKPEDTAVYYCAADGYRYSVYLIRNPMDYWGQGTQVTVSS | low polyreactivity |
| QVQLVESGGGLVQAGRSLRLSCAASGITFSRNDMGWYRQAPGKEMQLVAAISRSGGRTYYADSVKGRFTLSRDNAKNTVYLQMNCLNPEDTAVYYCNRDIGGTSVLDDYWGQGTQVTVSS | low polyreactivity |
| QVQLVESGGGLVQAGGSLRLSCAASGRIFDANAMGWYRQAPGKERELVAAINLSGTSTYADSVKGRFTISRDNAKNTVYLQMNSLKPEDTAVYYCNKRSPSTIRFDYWGQGTQVTVSS | high polyreactivity |
| QVQLVESGGGLVQAGGSLRLSCAASGSTSDSNAMGWSRQAPGKERELVAAITYSGDSTYYAYSVKGRFTISRDNAKNTVYLQMNSLKPEDTAVYYCATETYPSYEVDYWGQGTQVTVSS | low polyreactivity |
| QVQLVESGGGLVQAGGSLRLSCAAYGRTIRVYAMVWYRQAPGKERELVAAITSGDSTYYADSVKGRFTISRDNAKNTVYLQMNSLKPEDTAVYYCAVNTRRYWYGYWGQGTQVTVSS | high polyreactivity |
| QVQLVESGGGLVQAGGSLRLSCAASGFILRYNAMGWYRQAPGKEREFVAAITRGATTTYADSVKGRFTISRDNAKNTVYLQMNRLKPEDTAVYYCAKRYHGYISQGQLWERIYDYWGQGTQVTVSS | low polyreactivity |

| Sequence | polyreactivity (PSR sort gate) |
| --- | --- |
| QVQLVESRVGLVQAGGSLRLSCAASGFTFGHYVMGWYRQAPGKERELVAAITLSGGGTYYADSVKGRFTISRDNAKNTVYLQMNSLKPEDTAVYYCAAVGGEHAKKTYSRYKVDYWGQGTQVTVSS | low polyreactivity |
| QVQLVESGGGLVQAGGSLRLSCAASGRTVVNAMGWYRQAPGKERELVAAISSNGGRTYYADSVKGRFTISRDNAKNTVYLQMNSLKPEDTAVYYCATRWIKGRKMDYWGQGTQVTVSS | high polyreactivity |
| QVQLVDSGGGLVQAGGSLRLSCAASGITIPSYTMGWYRQGPGKERELVATIRNGGSTYYADSVKGRFTISRDNAKNTVYLQMNSLIPEDTAVYYCAAVPLWDYIFFYYLLYDYWGQGTQVTVSS | low polyreactivity |
| QVQLVESGGGLVQTGGSLRLSCAASGSTFNQYDMGWYRQAPGKERELVAAINRDGSTYYADSVKGRFTISRDNAKNTVYLQMNSLNPEDTAVYYWNAVGWYTYFYGSRKYNSWGQGTEVTVSS | low polyreactivity |
| QVQLVESGGGLVQAGGSLRLSCAASGSTLRGNAMGWYRPAPGKERELVAAITGRGTRTYYADSVKGRFTISRDNAKNTVYLQMNSLKPEDTAVYYCAAKGRLYPGWEYYYWGQGTQVTVSS | high polyreactivity |
| QVQLVESGGGLVQAGGSLRLSCAASGRIFAWNAMGWYRQAPGKERELVARIRVSGGRTYYADSVKGRFTISRDNAKNTVYLQMKSLKPDDTAVYYCNAYLRSGSMDYWGQGTQVTVSS | high polyreactivity |
| QVQLVESGGGLVQAGGSLRLSCAASGFTVAYYAMGWYRQAPGKERELVAAITGSGGRTYYADSVKGRFTISRDNAKNTVYLQMTSLKPEDTAVYYCAALTGPYKAQVHGGHTPLDYWGHGTQVTVSS | low polyreactivity |
| QFQLEESGGGLVQAGGSLRLSCAASGSTFSSYVMGWYRQAPGKERELVAAISSIGGSTYYADSVKGRFTISRDNAKNTVYLQMNSLKPEDTAVYYCAAEPPGSTYEGGYLGQGTQVTVSS | low polyreactivity |
| QVQLVESGGGLVQAGGSLRLSCAASGLTFYKNAMGWYRQAPGKVRELVAVISSSGGSTYYADSVKGRFTISRDKAKNTVYLQMNSLKPEDTAVYYCARDLYTEYRWGRLTYDYWGQGTQVTVSS | low polyreactivity |
| QVQLGESGGGLVQAGGSLRLSCAASGSTFARYAMGWYRQAPGKERELVAVIRSGGSRNYADSVKGRFTISRDNAKNTVYLQMNSLKPEDTAGAADQWTIHRWATYGYWGQGTQVTVSS | low polyreactivity |
| QVQLVESVGGLVHAGGSLRLSCAASGRTFGYNAMGWYRQATGKERELVAAISFRGGTTYYADSVKGRFTISRDNAKITVYLQMNCLIPEDPSVYYCAARYYYRYTGGRLDYWGQGTQVTVSS | high polyreactivity |
| QVQLVESVGGLVQEGGSLRLISAASGSIFGSNAMGWYRQAPGKEREMFAAISKSGGSTYYADSVKGRFTISRDNAKNTVYLQMNSLKPEDTAVFYCNPRWWVVTFYGRYEGDYWGQGTQVTVSS | low polyreactivity |
| QVQLVESGGGLVQAGGSLRLSCAASGRTFRFYAMGWSRQAPGKEREMVAAISYSGGSTYYADSVKGRFTISRDNAKNTVYLQMNSLKPEDTAVYYCAAPYYRSTTSYDYWGQGTQVTVSS | high polyreactivity |
| QVQLLESGGGLVQAGGSLRLSCAASGLTICYYAMGWYRQAPGKEREYVAAITSRGGDTYYADSVKGRFTISRDNAKNTVYLEMNSLKPEDTAVYYCAVRPRYYGTYRYYYWGQGTQVTVSS | high polyreactivity |
| QVQLVDSGGGLVQAGGSLRLSCASSGIIFGYYAMGWYRPAPGKERELVAGITYRTGSTDYADSVKGRFTISRDNAKNTVYFQMNSLKPEDTAVYFCAATQDKRKYSSCYYYWGQGTQVTVSS | high polyreactivity |
| QVQLVESGGGLVQAGGSLRLSCAASGIISSFYAMGWYRQAPGKERELVAAINWSGDSTYYADSVKGRFTISRDNAKNTVYLQMNSLKPEDTAVYYCAADYYGFYDEHDYWGQGTKVTVSS | low polyreactivity |
| QVQLVESGGGLVQAGGSLRLSCAASGSTFQRYAMGWYRQAPGKERELVAAINKSGGTTYYADSVKGRFTISRDNAKNTVYLLMNSLKPEDTAVYYCATDNPVVYQPGNMDYWGQGTQVTVSS | low polyreactivity |
| QVQLVESGGGLVQAGGSLRLSCAASGRTLIVNTMGWYRQAPGKEREFVAAIFSGASTYYAYSVKGRFTISRDNAKNTVYLQMNSLKPEDTAVYYCAVRNWHLIKYLHGYTRYGYWGQCTQVTVSS | low polyreactivity |
| QVQLVESGGGLVQAGGSLRLSCAASGRIFRKYAMGWYRQAPGKERELVAAISGSGGSTYYADSVKGRFTISRDNAKNTVYLQMNSLKPEDTAVYYCAASAGRYSSTLGYYWGQGTQVTVSS | high polyreactivity |
| QVQLVESAVCLVQAGVSLRLSCAASGIIFDYNAMGWYRQAPGKDREVVAAITSTDNTNYADSVKGRFTISRDNAKNTVYLQMNSLKPEDTAVYYCNTDYWLSVVYAMDYWGQGTQVTVSS | low polyreactivity |
| QVQLVESGGGLVQAGGSLRLSCAASGFTFSYYAMGWYRQAPGKERELVAAISSGGSTYYADSVKGRFTISRDNAKNTVYLQMHRLKPEDTAVYYCNVLNYSSRHYLFSYDYWGQGTQVTVSS | high polyreactivity |
